Residue numbers refer to the chain shown, from its start.
T1: human aquaporin 2 (AQP2), wild-type (human, UniProt P41181 1-271, cysteine residues labeled with C5 maleimide Alexa 488; dephosphorylated with alkaline phosphatase before labeling)
T1 construct: concentrations and molar ratios seem to count monomers; His-tag is called uncleavable; also called WT; labeled AQP2; source: Pichia pastoris, purified (HisTrap, SEC) in OGNG; not shown: His-tag, N-terminal, kept
T1 sequence (looked up): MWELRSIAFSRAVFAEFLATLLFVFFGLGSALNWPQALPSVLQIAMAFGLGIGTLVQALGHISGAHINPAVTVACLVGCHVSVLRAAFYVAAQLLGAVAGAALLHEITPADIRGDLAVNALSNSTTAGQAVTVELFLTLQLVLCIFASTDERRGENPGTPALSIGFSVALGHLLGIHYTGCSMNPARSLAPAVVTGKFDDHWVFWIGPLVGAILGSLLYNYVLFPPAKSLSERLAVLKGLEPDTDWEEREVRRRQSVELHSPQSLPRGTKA

B1: N-terminal domain of human LIP5 (ND-LIP5, residues 1-162) (domain or fragment)
chain: MAALAPLPPLPAQFKSIQHHLRTAQEHDKRDPVVAYYCRLYAMQTGMKIDSKTPECRKFLSKLMDQLEALKKQLGDNEAITQEIVGCAHLENYALKMFLYADNEDRAGRFHKNMIKSFYTASLLIDVITVFGELTDENVKHRKYARWKATYIHNCLKNGETPDYDIPTT
notes: LIP5, human, N-terminal domain, residues 1-162; spacer between the last ND-LIP5 residue and the TEV protease site that precedes the His tag; TEV site between spacer and His tag; no cleavage described; source: E. coli BL21*(DE3), purified (HisTrap, SEC)
B2: full-length human lysosomal trafficking regulator-interacting protein 5 (FL-LIP5) (natural protein)
chain: MAALAPLPPLPAQFKSIQHHLRTAQEHDKRDPVVAYYCRLYAMQTGMKIDSKTPECRKFLSKLMDQLEALKKQLGDNEAITQEIVGCAHLENYALKMFLYADNEDRAGRFHKNMIKSFYTASLLIDVITVFGELTDENVKHRKYARWKATYIHNCLKNGETPQAGPVGIEEDNDIEENEDAGAASLPTQPTQPSSSSTYDPSNMPSGNYTGIQIPPGAHAPANTPAEVPHSTGVASNTIQPTPQTIPAIDPALFNTISQGDVRLTPEDFARAQKYCKYAGSALQYEDVSTAVQNLQKALKLLTTGREDYDIPTT
notes: spacer between the last LIP5 residue and the TEV protease site that precedes the His tag; same tag, TEV site and linker as ND-LIP5; No TEV cleavage is described; also called full-length LIP5; wild-type LIP5; source: E. coli BL21*(DE3), purified (HisTrap, SEC)
B3: human AQP2 L230A (natural protein, UniProt P41181 1-271, looked up)
chain: T1 sequence (looked up) with L230A
modifications: cysteine residues labeled with C5 maleimide Alexa 488; dephosphorylated with alkaline phosphatase before labeling
notes: Mutant of m1; source: Pichia pastoris, purified (HisTrap, SEC) in OGNG; not shown: His-tag, N-terminal, kept
B4: human AQP2 R233A (natural protein, UniProt P41181 1-271, looked up)
chain: T1 sequence (looked up) with R233A
modifications: cysteine residues labeled with C5 maleimide Alexa 488; dephosphorylated with alkaline phosphatase before labeling
notes: as for B3
B5: human AQP2 L237A (natural protein, UniProt P41181 1-271, looked up)
chain: T1 sequence (looked up) with L237A
modifications: cysteine residues labeled with C5 maleimide Alexa 488; dephosphorylated with alkaline phosphatase before labeling
notes: as for B3
B6: human AQP2 K238A (natural protein, UniProt P41181 1-271, looked up)
chain: T1 sequence (looked up) with K238A
modifications: cysteine residues labeled with C5 maleimide Alexa 488; dephosphorylated with alkaline phosphatase before labeling
notes: as for B3
B7: human AQP2 E241A (natural protein, UniProt P41181 1-271, looked up)
chain: T1 sequence (looked up) with E241A
modifications: cysteine residues labeled with C5 maleimide Alexa 488; dephosphorylated with alkaline phosphatase before labeling
notes: as for B3
B8: human AQP2 L234A (natural protein, UniProt P41181 1-271, looked up)
chain: T1 sequence (looked up) with L234A
modifications: cysteine residues labeled with C5 maleimide Alexa 488; dephosphorylated with alkaline phosphatase before labeling
notes: as for B3

What follows are binders tested against T1, human aquaporin 2 (AQP2), wild-type (assay: other fluorescence titration; stoichiometry: labeled AQP2 kept 20 times above the Kd, LIP5 added to a molar LIP5:AQP2 ratio between 0 and 2; saturation point from the intercept of two linear fits; same buffers). Conditions: both partners purified.

stoichiometry N	Binder
0.29 molar ratio ND-LIP5:AQP2	B1
0.42 molar ratio FL-LIP5:AQP2	B2

These binders were tested against B2 (assay: other fluorescence titration; Alexa 488-labeled, dephosphorylated AQP2 (around 1 uM) in the cuvette, titrated with unlabeled LIP5; total fluorescence; 20 mM Tris-HCl pH 8, 300 mM NaCl, 0.2% OGNG; triplicate titrations). Conditions: both partners purified.

Kd	Binder
156 nM	B3
487 nM	B4
535 nM	B5
552 nM	B6
700 nM	B7
126 nM	B8

These binders were tested against T1, human aquaporin 2 (AQP2), wild-type in the same assay as above. Conditions: both partners purified.

Kd	Binder
64.4 nM	B1

— PMC6862464, “Structural Insights into AQP2 Targeting to Multivesicular Bodies” (International Journal of Molecular Sciences, 2019)
